Data taken from PMC8622166.

Experiments:
[1] = target: geranylgeranylated RAC1 (RAC1^GG) (human) (UniProt P63000); test: not stated
[2] = target: RAC1^ΔC10 (C-terminal truncated variant lacking HVR-CAAX) (human) (UniProt P63000); test: fluorescence polarisation; increasing GDI1 (variants) titrated to 0.2 µM mdGDP-bound RHO protein, 200 µL; 25 °C, 30 mM Tris/HCl pH 7.5, 10 mM K2HPO4/KH2PO4 pH 7.5, 5 mM MgCl2, 3 mM DTT; quadratic binding equation
[3] = target: RAC1, RAC3, RHOG and RHOA; test: stopped-flow fluorimetry; kon from kobs against increasing GDI concentrations mixed with 0.2 µM mdGDP-bound RHO GTPase; koff by displacement with excess unlabeled GDP-bound RHO protein; Kd = koff/kon; 25 °C, 30 mM Tris/HCl pH 7.5, 10 mM K2HPO4/KH2PO4 pH 7.5, 5 mM MgCl2, 3 mM DTT
[4] = target: geranylgeranylated RAC1 (RAC1^GG) (human) (UniProt P63000); test: as above
[5] = target: geranylgeranylated RAC1 (RAC1^GG) (human) (UniProt P63000); test: stopped-flow fluorimetry; association (kobs) at one concentration: 2 µM GDI mixed with 0.2 µM mdGDP-bound RHO GTPase; 25 °C, 30 mM Tris/HCl pH 7.5, 10 mM K2HPO4/KH2PO4 pH 7.5, 5 mM MgCl2, 3 mM DTT
[6] = target: non-isoprenylated RAC1 full-length (RAC1^FL) (human) (UniProt P63000); test: as above
[7] = target: non-isoprenylated RAC1 full-length (RAC1^FL) (human) (UniProt P63000); test: fluorescence polarisation; increasing GDI1 (variants) titrated to 0.2 µM mdGDP-bound RHO protein, 200 µL; 25 °C, 30 mM Tris/HCl pH 7.5, 10 mM K2HPO4/KH2PO4 pH 7.5, 5 mM MgCl2, 3 mM DTT; quadratic binding equation
[8] = target: non-isoprenylated RAC1 full-length (RAC1^FL) (human) (UniProt P63000); test: stopped-flow fluorimetry; kon from kobs against increasing GDI concentrations mixed with 0.2 µM mdGDP-bound RHO GTPase; koff by displacement with excess unlabeled GDP-bound RHO protein; Kd = koff/kon; 25 °C, 30 mM Tris/HCl pH 7.5, 10 mM K2HPO4/KH2PO4 pH 7.5, 5 mM MgCl2, 3 mM DTT
RHOA (Homo sapiens) = RHOA (Homo sapiens) (UniProt P61586); conditions: cited from earlier work
Sequence of RHOA (Homo sapiens) (P61586 1-190): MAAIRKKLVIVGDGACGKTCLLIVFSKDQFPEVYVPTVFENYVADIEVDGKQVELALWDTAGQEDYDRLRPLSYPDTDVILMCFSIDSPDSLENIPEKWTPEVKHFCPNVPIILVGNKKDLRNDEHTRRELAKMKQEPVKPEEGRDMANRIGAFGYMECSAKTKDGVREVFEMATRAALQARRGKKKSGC

RAC1 (Homo sapiens) = RAC1 (Homo sapiens) (UniProt P63000); conditions: cited from earlier work
CDC42 (Homo sapiens) = CDC42 (Homo sapiens) (UniProt P60953); conditions: cited from earlier work
Sequence of CDC42 (Homo sapiens) (P60953 1-188): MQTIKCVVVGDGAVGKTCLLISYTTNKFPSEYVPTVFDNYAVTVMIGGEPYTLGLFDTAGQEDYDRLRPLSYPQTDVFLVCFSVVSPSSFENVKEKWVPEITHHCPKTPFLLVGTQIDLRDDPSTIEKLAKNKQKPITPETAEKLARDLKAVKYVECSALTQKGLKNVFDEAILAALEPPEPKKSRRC

“GDI1 (RHOGDI1), wild type (from UniProt P52565 1-204) (natural protein)” showed a Kd [1] of 180 nM, a fold lower Kd than for RAC1^FL [1] of 2.5 to 4.6 fold and a fold lower affinity than for RAC1 [2] of 26 fold. The Kd [3] was 900 to 3200 nM, the fold difference of koff between RAC1^GG and RAC1^FL [4] was 3 fold and the fold higher affinity than for RAC1^FL (Kd from koff/kon) [4] was 7 fold.
In the case of “GDI1^ΔC6 (from UniProt P52565 1-198) (domain or fragment)”, the fold slower association rate than GDI1^WT [5] is reported as less than 24 fold, the fold slower association rate than GDI1^WT [6] is reported as less than 24 fold and the fold change of Kd against GDI1^WT [7] is reported as 140 fold. The fold difference in kon against GDI1 wt [8] was greater than 100 fold.
“GDI1^ΔN15 (from UniProt P52565 16-204) (domain or fragment)” showed a fold slower association rate than GDI1^WT [5] of less than 24 fold, a fold slower association rate than GDI1^WT [6] of less than 24 fold and a fold change of Kd against GDI1^WT [7] of 440 fold. It also gave a fold difference in kon against GDI1 wt [8] greater than 100 fold.
For GDI1 (from UniProt P52565), the Kd (RHOA (Homo sapiens)) is listed as 0.005 nM, the Kd (RAC1 (Homo sapiens)) is listed as 0.4 nM and the Kd (CDC42 (Homo sapiens)) is listed as 1.6 nM.
